US20080220446A1, “Method for Detecting and/or Removing Protein and/or Peptide Comprising a Cross-Beta Structure From an Aqueous Solution Comprising a Protein” (priority 2005, published 2008)

Target: tPA (Homo sapiens, UniProt P00750)
Test: Plasminogen-activation assay (tPA activation, S-2251)
Format: biochemical
Details: β2GPI preparations, 100 μg ml^−1
Description: Plasmin (Pls) activity was assayed as described^16. Peptides and proteins that were tested for their stimulatory ability were regularly used at 100 μg ml^−1. […] Chromogenic substrate S-2251 (Chromogenix, Instrumentation Laboratory SpA, Milano, Italy) was used to measure Pls activity. Conversion of zymogen factor XII (#233490, Calbiochem, EMD Biosciences, Inc., San Diego, Calif.) to proteolytically active factor XII (factor XIIa) was assayed by measurement of the conversion of chromogenic substrate Chromozym-PK (Roche Diagnostics, Almere, The Netherlands) by kallikrein. Chromozym-PK was used at a concentration of 0.3 mM. […] The conversion of Chromozym-PK was recorded kinetically at 37° C. for at least 60 minutes. […]
Formulated protein therapeutics were obtained from the local hospital pharmacy and were used as supplied by the manufacturers. […] Enhancement in fluorescence of ThT and Congo red was measured with all formulated protein therapeutics. […]
To prepare structurally altered ovalbumin (OVA) with amyloid cross-β structures, purified OVA (Sigma, A-7641, lot 071k7094) was heated to 85° C. […] Native OVA (nOVA) and heat-denatured OVA (dOVA) were tested in the ThT fluorescence assay and in the Plg-activation assay. In the fluorescence assay and in the Plg-activation assay, 25 and 100 μg ml^−1 nOVA and dOVA were tested, respectively. […]

tPA, sequence (P00750 36-562): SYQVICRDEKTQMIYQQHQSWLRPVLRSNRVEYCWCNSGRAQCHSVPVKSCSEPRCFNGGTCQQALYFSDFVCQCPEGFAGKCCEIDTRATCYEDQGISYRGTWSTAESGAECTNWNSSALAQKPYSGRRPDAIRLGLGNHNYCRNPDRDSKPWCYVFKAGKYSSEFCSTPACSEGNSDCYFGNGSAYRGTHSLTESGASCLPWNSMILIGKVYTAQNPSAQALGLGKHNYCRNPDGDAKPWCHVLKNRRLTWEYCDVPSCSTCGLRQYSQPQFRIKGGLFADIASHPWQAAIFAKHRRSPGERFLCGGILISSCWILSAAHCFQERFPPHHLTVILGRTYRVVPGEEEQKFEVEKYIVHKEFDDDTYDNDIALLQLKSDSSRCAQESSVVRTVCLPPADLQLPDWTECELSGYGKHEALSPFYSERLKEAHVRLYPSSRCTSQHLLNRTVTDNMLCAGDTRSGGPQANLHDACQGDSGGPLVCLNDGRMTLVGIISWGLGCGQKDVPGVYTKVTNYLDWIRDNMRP

B1: recombinant β2GPI: recombinant human β2-glycoprotein I made using insect cells (protein)
chain: GRTCPKPDDLPFSTVVPLKTFYEPGEEITYSCKPGYVSRGGMRKFICPLTGLWPINTLKCTPRVCPFAGILENGAVRYTTFEYPNTISFSCNTGFYLNGADSAKCTEEGKWSPELPVCAPIICPPPSIPTFATLRVYKPSAGNNSLYRDTAVFECLPQHAMFGNDTITCTTHGNWTKLPECREVKCPFPSRPDNGFVNYPAKPTLYYKDKATFGCHDGYSLDGPEEIECTKLGNWSAMPSCKASCKVPVKKATVVYQGERVKIQEKFKNGMLHGDKVSFFCKNKEKKCSYTEDAQCIDGTIEVPKCFKEHSSLAFWKTDASDVKPC
- stimulation of tPA-mediated conversion of Plg to Pls: stimulate tPA-mediated conversion of Plg to Pls
